Four molecules from patent publication US12173292B2, “Controlling bacterial biofilms” (LANXESS Corporation, priority 2019, dated 2024) can be followed below.

One assay relates to D. vulgaris biofilm. In words: Biofilm formation assay, crystal violet staining, 96-well plates. It is filed as cell-based, Desulfovibrio vulgaris Hildenborough. The method, then:
(§1) D. vulgaris, D. desulfuricans and plasmid-transformed strains of both of these bacteria were grown anaerobically in Modified Baar's medium (300 μL) in 96-well micro-titer plates (Fisher Scientific, cat no. 07-200-656) for 24 hours at 30° C. without shaking, after which time the planktonic cell turbidity in each well was measured spectrophotometrically at 620 nm using a Sunrise™ microplate reader (TECAN, Switzerland). The plates were then incubated under the same conditions for an additional 24 to 48 hours, after which biofilm formation was measured by crystal violet staining. For biofilm dispersal assays, 24 hours after seeding the plates for biofilm growth, arabinose (10 mM) was added to strains harboring plasmids allowing arabinose-based induction of DVU2956 (SEQ ID NO:2). The arabinose-treated strains were then incubated anaerobically for another 24 hours without shaking, after which time biofilm formation was measured by crystal violet staining.
For crystal violet staining, the liquid portion of the cultures was discarded and the wells were washed by dipping the plates into 1 L of distilled water, after which the plates were dried with paper towel. Crystal violet (0.1%, 300 μL) was added to each well and the plates were incubated for 20 minutes at room temperature. After discarding the bulk of the staining solution, the wells were washed three times with distilled water as above to remove unbound crystal violet. The wells were then soaked for 5 minutes in 95% ethanol (300 μL) to dissolve the remaining (bound) crystal violet, which was then measured spectrophotometrically at 540 nm using the Sunrise™ microplate reader. Normalized biofilm formation percentage values were calculated based on the ratio of […] to compare the degree of biofilm formation or dispersal.

Assay [1] deals with established D. vulgaris biofilms. Put plainly: Biofilm dispersal assay, arabinose induction, crystal violet staining. It is filed as cell-based, Desulfovibrio vulgaris Hildenborough. The note with it: after 24 hours; expression from inducible promoter PBAD on pMQ70; vs D. vulgaris/pMQ70. The method, then: as §1
(§2) For crystal violet staining, the liquid portion of the cultures was discarded and the wells were washed by dipping the plates into 1 L of distilled water, after which the plates were dried with paper towel. […] The wells were then soaked for 5 minutes in 95% ethanol (300 μL) to dissolve the remaining (bound) crystal violet, which was then measured spectrophotometrically at 540 nm using the Sunrise™ microplate reader. […]

For a further assay, the system named is D. desulfuricans biofilm. Put plainly: Biofilm formation assay, crystal violet staining, 96-well plates. It is filed as cell-based, Desulfovibrio desulfuricans (DSM 12129). The note with it: at 24 hours; D. desulfuricans/pVLT33-Pdvu0304-dvu2956 vs D. desulfuricans/pVLT33-Pdvu0304. The method, then: as §1, §2
For assay [2], the system named is D. vulgaris biofilm cells. Put plainly: Hydrogen sulfide production assay (methylene blue spectrophotometric). Format: cell-based, Desulfovibrio vulgaris Hildenborough. The method, then: Hydrogen sulfide (H2S) by D. vulgaris strains was measured via a methylene blue spectrophotometric assay (Rabinowitz, 1978, Methods Enzymol. 53:275-277; incorporated herein by reference). Briefly, in this assay, N,N-dimethyl-p-phenylenediamine dihydrochloride is converted into methylthioninium chloride (methylene blue) by reacting with H2S dissolved in hydrochloride acid in the presence of ferric chloride. For a 96-well screening format, D. vulgaris was anaerobically grown in Modified Baar's medium in a 96-well plate (starting turbidity/OD of 0.05 at 600 nm, 150-μL culture volume) and incubated for 48 hours for biofilm formation. Anaerobically, 25 μL of each biofilm culture was transferred to another 96-well plate containing 225 μL deoxygenated water per well to render a 10-fold dilution of the transferred culture. Next, 5% N,N-dimethyl-p-phenylenediamine dihydrochloride (24.5 μL, prepared in 5.5 N HCl) (Sigma-Aldrich, cat. no. 536-46-9) was added to each well. After mixing the wells gently by pipetting and anaerobically incubating the mixes at room temperature for 3 minutes, the 96-well plate was removed from the anaerobic chamber and the absorbance at 670 nm of each well was measured using a Sunrise™ microplate reader.
For a more rigorous H2S assay, sealed glass vials were used to prevent H2S loss. D. vulgaris strains were grown anaerobically for 7 to 10 days in 10 mL of Modified Baar's medium with 2.5 g of sterilized glass wool to promote biofilm formation. Supernatants from these cultures were transferred by syringe to another sealed vial for dilution with 10 mL of PBS buffer. Anaerobically, 1 mL of diluted sample was then transferred by syringe to another sealed bottle with 125 μL of 12% sodium hydroxide and 3.25 mL of 1% zinc acetate (to fix the sulfide from H2S by forming ZnS precipitates). […] Water (2.125 mL) was added and mixed, and then at least 1 mL of each reaction was removed to determine absorbance at 670 nm.

Assay [3] concerns Pdvu2956 (dvu2956 gene regulatory sequence). Put plainly: Pdvu2956-mNeonGreen reporter fluorescence assay. The note with it: ectopic expression induced by 1 mM IPTG for 90 minutes; E. coli/pMQ70-Pdvu2956-mNeonGreen/pET27b-dvu2956; excitation 425 nm, emission 517 nm. Format: cell-based, E. coli BL21(DE3). An excerpt:
A D. vulgaris dvu2956 gene regulatory sequence (SEQ ID NO:12), which comprises (in 5′ to 3′ direction) predicted promoter (SEQ ID NO:13) and 5′-untranslated region (5′-UTR) sequences (SEQ ID NO:14), was linked upstream of a synthetic ribosome binding site (RBS, SEQ ID NO:15) and a codon-optimized nucleotide sequence (SEQ ID NO:16) encoding a monomeric yellow-green fluorescent protein (mNeonGreen™, GenBank® Accession No. KC295282). This nucleotide sequence (provided as SEQ ID NO:17) was constructed in E. coli TG1 to render plasmid construct pMQ70-Pdvu2956-mNeonGreen (8164 bp) and then transferred into D. vulgaris (wild type) and E. coli strain BL21(DE3), the latter of which was already transformed with plasmid pET27b-dvu2956 (pET27b-dvu2956 allows for IPTG-induced expression of ectopic DVU2956 [SEQ ID NO:2]). PCR analyses confirmed the presence of plasmids pMQ70-Pdvu2956-mNeonGreen (in both strains) and pET27b-dvu2956 (in E. coli). Additional D. vulgaris and E. coli strains that were transformed with plasmid pMQ70 were prepared, and served as negative controls in the fluorescence assays described below.
A similar analysis was conducted to test whether Pdvu2956 can heterologously drive gene expression in bacteria other than sulfate-reducing bacteria. […]

Where [4] appears, read: at 48 hours, biofilm-specific expression from pVLT33-Pdvu0304-based construct in D. vulgaris, vs wild type and D. vulgaris/pVLT33-Pdvu0304.

B1: DVU2956: D. vulgaris Hildenborough sigma 54-dependent enhancer-binding protein, 345 aa, SEQ ID NO:2, expressed in the bacteria from plasmids (protein)
chain: MSGKKLPHSGNSLPIEGTVSPQRETLQNGTDFLLLSGVMQRLRVLASQVASSDAPVLIHGETGTGKELFARLIHDMGIRAKKPFVAVNCGVHEGELFADKFFGHEQGAFTGAHRMSQGCFELASEGTLFLDEVGEIPGANQADFLRVLEEKRFRRIGGQRDIPFQARIVAASNRDLQEMVGQGQFRADLFYRLNVIPVVLPPLRARKEEVVPLARHFLTHYGDKYHRPGVRFAPETEQALAAYQWPGNVRELKNLVERIALLAPEGVLGPEHLPLELRSAAAVEVGVPHEVPEDLSLDRARREAEVRVILKAMRATGGNKGEAARLLGVSPRTLRYKFAEYALRF
modifications: Desulfovibrio vulgaris Hildenborough
For the molecule B1, the “inhibition of biofilm formation” value is given as 48±11% in the assay on D. vulgaris biofilm (at 24 hours, D. vulgaris (dvu2956-) complemented with pMQ70-Pdvu2956-dvu2956, vs D. vulgaris (dvu2956-)/pMQ70-Pdvu2956) and 78±9% with D. desulfuricans biofilm. The “dispersal of established biofilms” value in assay [1] amounted to 42±4%. Also, the “decrease of H2S production” value in assay [2] (96-well culture, D. vulgaris/pVLT33-Pdvu0304-dvu2956 vs D. vulgaris/pVLT33-Pdvu0304) is 51±2%; in assay [2] (D. vulgaris (dvu2956-)/pMQ70-Pdvu2956-dvu2956 vs D. vulgaris (dvu2956-)/pMQ70-Pdvu2956), 45±13%. The “inhibition of H2S production” value in assay [2] (sealed vials, biofilm-specific expression) was found to be 34.6±0.6%. Further, in assay [3], the “higher fluorescence signal vs negative control” value was roughly 14 fold.

B2: DVU2962: D. vulgaris Hildenborough protein, 577 aa, SEQ ID NO:8, expressed from pVLT33-Pdvu0304-dvu2962 (protein)
chain: MKNPLGTMLSRLRSVFDVPDEIAPERYRMLRRKITLLMTAVSVLPLLILTAVSYHQYQSTLTREIVTPVRALVNKTRHSFELFLAERSSTVSLLAKTYSMAELSDEKNLNRIFLALKGEFPGFVDLGVIDGRGVQVGYVGPYDVRGKNYSEADWYNRTRVKGVYISDVFMGFRRFPHIAIAVQRMNPDGSSWMLRATIETTQFDRLIASMGLDPESDAFLINTAGVLQTNSRFYGNVLDVMPMPVPHLSYEPSIIDTEDPEGRQIFLSSAFLQNADFAIVAVKPKTEILRPWTSLRSDLLIFVAFSVALIISAAFGFTDMLVRRMRDSDERRIAAFVQIEHTQKLSSIGRLAAGVAHEINNPLAIINEKAGLAADLIALSQDFPQKERFSAIVEAISRSVDRCRSITHRLLGFSRRMDATYEQLDVNGILKETMSFLEQEAVHRSITIGTSLDAGLPRITSDRGQLQQVFLNIINNAFAAVQDGGSVTLTTFAADGGMVGVSIQDNGKGMSEEVQRHIFEPFFTTKKTAGTGLGMFITYGIIKRLGGEIGINSREGVGTTVTVYLPQDAPAPQSLEN
modifications: Desulfovibrio vulgaris Hildenborough
B2: in the assay on D. vulgaris biofilm (setting [4]), the “inhibition of biofilm formation” value turned out to be 90%.

B3: DVU2960: D. vulgaris Hildenborough protein, 474 aa, SEQ ID NO:4, expressed from pVLT33-Pdvu0304-dvu2960 (protein)
chain: MKQASLPAGARIAGLVGRELALGPVFDAIPTGLAVLDADLRICLMNRALETMTGFTTAEVAGIPCRHVLRASVCLHRCPTRTAVCDATGGNAPCHAQEGDLLNRHRRRIPVRLTLAPLHDAQGQLCGWLHTAEDLSLVRELEERCSKGQASGPLVGRSVVMEELFRTVQALAQTETPVLITGETGTGKDAVAETIHKASPRGREPFVKASLSSLPDFLVESELFGHRKGAFPGAEEDKPGRFRMAQGGTLCLSELGDLPPAMQGRLVTFLDEGLVWPVGATDPVRCDVRLLVASNLDLEAMVASGRLREDLYSRLAAVRIHLPPLRERGEDLEFLLSHYLAHFAARLRKTIHGFSGKSLRVLLAYGFPGNVRELKNIVEYAATLCTGEVVMPSHLPAYLFHTRPAAAPPRAIERDTPKGAAEDEASARSSVVDLERRLIVDALARAGNRKGEAARILGWGRSTLWRKMKQFGLE
modifications: Desulfovibrio vulgaris Hildenborough
Turning to B3, in the assay on D. vulgaris biofilm (setting [4]), the “inhibition of biofilm formation” value is 95%.

B4: DVU2964: D. vulgaris Hildenborough protein, 219 aa, SEQ ID NO:10, expressed from pVLT33-Pdvu0304-dvu2964 (protein)
chain: MRENACVGCLTASASHELQNALAVIRESAGLMQDLIALGGENIPRRERIVELLSLIQQQVARGGELAGGLNTLGHAWEEDDGDLARILEEFVILAGRMGRMRSVTVGLAPGESGLRAPSAGLALRVLLFDLLQTCLEEAPGCALTFAPARRDGIPGIHLRVGLARCDATTDVLRRLDAQLARLGARKEPDNGHGTPARDEPDGVLYYFTACPSATGHRA
modifications: Desulfovibrio vulgaris Hildenborough
Consider B4, for which, in the assay with D. vulgaris biofilm (setting [4]), the “inhibition of biofilm formation” value is 45%.
